Laboratory results: article doi:10.1101/2021.02.03.429618 (bioRxiv, 2021)

Molecular target: T1, human 2-oxoglutarate dehydrogenase (hE1o) (human, UniProt Q02218 41-1023)
T1 sequence (looked up): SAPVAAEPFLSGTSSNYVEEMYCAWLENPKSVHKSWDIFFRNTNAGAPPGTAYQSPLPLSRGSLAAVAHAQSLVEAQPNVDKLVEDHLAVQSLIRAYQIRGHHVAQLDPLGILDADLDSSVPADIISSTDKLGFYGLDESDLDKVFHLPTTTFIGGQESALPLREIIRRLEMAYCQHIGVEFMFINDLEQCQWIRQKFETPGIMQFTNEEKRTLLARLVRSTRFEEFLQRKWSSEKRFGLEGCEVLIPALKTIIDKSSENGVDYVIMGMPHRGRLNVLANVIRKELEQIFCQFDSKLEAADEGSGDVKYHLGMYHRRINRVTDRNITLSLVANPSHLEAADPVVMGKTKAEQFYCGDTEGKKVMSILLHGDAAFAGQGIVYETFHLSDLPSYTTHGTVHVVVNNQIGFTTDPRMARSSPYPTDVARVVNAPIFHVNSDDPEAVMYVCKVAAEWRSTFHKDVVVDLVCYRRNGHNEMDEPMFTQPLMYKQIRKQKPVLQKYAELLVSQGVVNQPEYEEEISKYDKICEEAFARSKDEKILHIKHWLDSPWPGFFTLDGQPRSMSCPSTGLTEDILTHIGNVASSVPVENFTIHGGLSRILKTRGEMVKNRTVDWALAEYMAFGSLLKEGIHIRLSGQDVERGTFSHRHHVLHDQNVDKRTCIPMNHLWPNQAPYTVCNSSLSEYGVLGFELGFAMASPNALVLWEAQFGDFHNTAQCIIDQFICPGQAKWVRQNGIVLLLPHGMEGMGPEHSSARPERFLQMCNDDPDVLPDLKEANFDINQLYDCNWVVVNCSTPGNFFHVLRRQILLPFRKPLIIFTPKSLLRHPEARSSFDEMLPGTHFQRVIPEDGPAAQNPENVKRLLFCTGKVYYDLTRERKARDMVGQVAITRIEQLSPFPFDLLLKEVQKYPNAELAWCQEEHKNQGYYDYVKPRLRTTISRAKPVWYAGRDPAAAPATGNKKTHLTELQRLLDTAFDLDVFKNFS
Assay: cross-linking

- binding result: binds
B1: human dihydrolipoyl succinyltransferase (hE2o) (enzyme, UniProt P36957 68-453, looked up)
chain: DDLVTVKTPAFAESVTEGDVRWEKAVGDTVAEDEVVCEIETDKTSVQVPSPANGVIEALLVPDGGKVEGGTPLFTLRKTGAAPAKAKPAEAPAAAAPKAEPTAAAVPPPAAPIPTQMPPVPSPSQPPSGKPVSAVKPTVAPPLAEPGAGKGLRSEHREKMNRMRQRIAQRLKEAQNTCAMLTTFNEIDMSNIQEMRARHKEAFLKKHNLKLGFMSAFVKASAFALQEQPVVNAVIDDTTKEVVYRDYIDISVAVATPRGLVVPVIRNVEAMNFADIERTITELGEKARKNELAIEDMDGGTFTISNGGVFGSLFGTPIINPPQSAILGMHGIFDRPVAIGGKVEVRPMMYVALTYDHRLIDGREAVTFLRKIKAAVEDPRVLLLDL
